# Measured values reported in patent publication US20220259593A1, “CONTROL OF MAMMALIAN GENE DOSAGE USING CRISPR” (The Regents of the University of California, priority 2019, published 2022).
# System: K562 CRISPRi cells
# Test: Constant region variant library pooled growth screen, K562
# Assay type: cell-based, human
# Conditions: sgRNA constant region variants; activity relative to the original, un-modified constant region cr995
# In short: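 Relative activity expresses each targeting sequence:constant region pair's phenotype over that of the unmodified constant region. Pooled growth screen ran in K562 CRISPRi cells in duplicate spinner-flask replicates, with puromycin selection and 4–8 days' growth at >2000× coverage; library paired variants with 36 targeting sequences.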
row,Molecule,Mean relative activity
1,"cr286 (nucleic acid, listed as DNA, chemistry not fully specified) guide: GTTTAAGAGCTAAGCTGGAAACAGCATAGCAAGTTTAAATAAGGCGAGTCCGTTATCAACTTGAGAAAGTGGCACCGAGTCGGTGCT",0.885
2,"cr991 (nucleic acid, listed as DNA, chemistry not fully specified) guide: GTTTAAGAGCTAAGCTGGAAACAGCATAGCAAGTTTAAATAAGGCTAGTCCGATATCAACTTGACAAAGTGGCACCGAGTCGGTGCT",0.8694
3,"cr759 (nucleic acid, listed as DNA, chemistry not fully specified) guide: GTTTAAGAGCTAAGCTGGAAACAGCATAGCAAGTTTAAATAAGGCTCGTCCGTTATCAACTTGAGAAAGTGGCACCGAGTCGGTGCT",0.8842
4,"cr260 (nucleic acid, listed as DNA, chemistry not fully specified) guide: GTTTAAGAGCTAAGCTGGAAACAGCATAGCAAGTTTAAATAAGGCTAGTCCGATATCAACTTGAAAAAGTGGCACCGAGTCGGTGCT",0.874
5,"cr717 (nucleic acid, listed as DNA, chemistry not fully specified) guide: GTTTAAGAGCTAAGCTGGAAACAGCATAGCAAGTTTAAATAAGGTTAATCCGTTATCAGCTTGAAAAAGCGGCACCGAGTCGGTGCT",1.056
6,"cr495 (nucleic acid, listed as DNA, chemistry not fully specified) guide: GTTTAAGAGCTAAGCTGGAAACAGCATAGCAAGTTTAAATAAGGCTAGTCCGTTATCAACTTGAAAAAGTGGCACCGAGACGGTGCT",0.8462
7,"cr236 (nucleic acid, listed as DNA, chemistry not fully specified) guide: GTTTAAGAGCTAAGCTGGAAACAACATAGCAAGTTTAAATAAGGCTAGTCCGTTATCAACTTGAAAAAGTGGCACCGAGTCGGTGCT",0.8745
8,"cr914 (nucleic acid, listed as DNA, chemistry not fully specified) guide: GTTTAAGAGCTAAGCTGGAAACAGCATAGCAAGTTTAAATAAGACTAGTTCGTTATCAACTTGAAAAAGTGGGACCGAGTCGGTCCT",0.8494
9,"cr943 (nucleic acid, listed as DNA, chemistry not fully specified) guide: GTTTAAGAGCTAAGCTGGAAACAGCATAGCAAGTTTAAATAAGGCTAGTCCGTTATCAACTTGAAAAAGTGACAACGAGTCGTTGTT",0.8464
10,"cr643 (nucleic acid, listed as DNA, chemistry not fully specified) guide: GTTTAAGAGCTAAGCTGGAAACAGCATAGCAAGTTTAAATAAGACTAGTTCGTTATCAGCTTGAAAAAGCGGCATCGAGTCGATGCT",0.865
11,"cr781 (nucleic acid, listed as DNA, chemistry not fully specified) guide: GTTTAAGAGCTAAGCTGGAAACAGCATAGCAAGTTTAAATAAGGCTAGTCCGTTATCAACTTGAAAAAGTGGCACCGAGTCGGTCCT",0.8813
12,"cr768 (nucleic acid, listed as DNA, chemistry not fully specified) guide: GTTTAAGAGCTAAGCTGGAAACAGCATAGCAAGTTTAAATAAGGCTAGTCCGTTATCAACTTGAAAAAGTGGCACCGAGCCGGTGCT",0.8788
13,"cr521 (nucleic acid, listed as DNA, chemistry not fully specified) guide: GTTTAAGAGCTAAGCTGGAAACAGCATAGCAAGTTTAAATAAGGCTGGTCCGTTATCAACTTGAAAAAGTGGCACCGTGTCGGTGCT",0.8638
14,"cr878 (nucleic acid, listed as DNA, chemistry not fully specified) guide: GTTTAAGAGCTAAGCTGGAAACAGCATAGCAAGTTTAAATAAGGTTAATCCGTTATCAATTTGAAAAAATGGCATCGAGTCGATGCT",0.847
15,"cr676 (nucleic acid, listed as DNA, chemistry not fully specified) guide: GTTTAAGAGCTAAGCTGGAAACAGCATAGCAAGTTTAAATAAGGCTAGTCCGTTATCAACTTGGAAAAGTTGCACCGAGTCGGTGCT",0.8506
16,"cr184 (nucleic acid, listed as DNA, chemistry not fully specified) guide: GTTTAAGAGCTAAGCTGGAAACAGCATAGCAAGTTTAAATAAGGCTAGTCCGGTATCAACTTGGAAAAGTGGCACCGAGTCGGTGCT",0.8653

row,Molecule,Mean relative activity
1,"cr022 (nucleic acid, listed as DNA, chemistry not fully specified) guide: GTTTAAGTGCTAAGCTGGAAACAGCATAGCAAGTTTAAATAAGGCTAGTCCGTTATCAACTTGAAAAAGTGGCACCGAGTCGGTGCT",1.058
2,"cr899 (nucleic acid, listed as DNA, chemistry not fully specified) guide: GTTTAAGAGCTAAGCTGGAAACAGCATAGCAAGTTTAAATAAGACTAGTTCGTTATCAGCTTGAAAAAGCGGTACCGAGTCGGTACT",0.8583
3,"cr216 (nucleic acid, listed as DNA, chemistry not fully specified) guide: GTTTAAGAGCTAAGCTGGAAACAGCATAGCAAGTTTAAATAAGACTAGTTCGTTATCAACTTGAAAAAGTGGCACCGAGTCGGTGCT",0.8652
4,"cr788 (nucleic acid, listed as DNA, chemistry not fully specified) guide: GTTTAAGAGCTAAGCTGGAAACAGCATATCAAGTTTAAATAAGGCTAGTCCGTTATCAACTTGAAAAAGTGGCACCGAGTCGGTGCT",0.8617
5,"cr617 (nucleic acid, listed as DNA, chemistry not fully specified) guide: GTTTAAGAGCTAAGCTGGAAACAGCATAGCAAGTTTAAATAAGGTTAATCCGTTATCAGCGTGAAAACGCGGCACCGAGTCGGTGCT",1.058
6,"cr891 (nucleic acid, listed as DNA, chemistry not fully specified) guide: GTTTAAGAGCTAAGCTGGAAACAGCATAGCAAGTTTAAATAAGACTAGTTCGTTATCAACTTGAAAAAGTGGTACCGAGTCGGTACT",0.8641
7,"cr396 (nucleic acid, listed as DNA, chemistry not fully specified) guide: GTTTAAGAGCTAAGCTGGAAACAGCATAGCAAGTTTAAATAAGGCTAGTCCGTTATCAACTTGAAAAAGTGGCAACAAGTTGTTGCT",0.8826
8,"cr688 (nucleic acid, listed as DNA, chemistry not fully specified) guide: GTTTAAGAGCTAAGCTGGAAACAGCATAGCAAGTTTAAATAAGGCTAGTCCGTTATCAACTTGATAAAGTGGCACCGAGCCGGTGCT",0.848
9,"cr865 (nucleic acid, listed as DNA, chemistry not fully specified) guide: GTTTAAGAGCTAAGCTGGAAACAGCATAGCAAGTTTAAATAAGGCTAGTCCGTTATCATCTTGAAAAAGTGGCACCGAGTCGGTGCT",0.8637
10,"cr692 (nucleic acid, listed as DNA, chemistry not fully specified) guide: GTTTAAGAGCTAAGCTAGAAACAGCATAGCAAGTTTAAATAAGGCTAGTCCGTTATCAACTTGAAAAAGTGGCACCGAGTCGGTGCT",0.8665
11,"cr729 (nucleic acid, listed as DNA, chemistry not fully specified) guide: GTTTAAGAGCTAAGCTGGAAATAGCATAGCAAGTTTAAATAAGGCTAGTCCGTTATCAACTTGAAAAAGTGGCACCGAGTCGGTGCT",0.8793
12,"cr169 (nucleic acid, listed as DNA, chemistry not fully specified) guide: GTTTAAGAGCTAAGCTGGAAACAGCATAGCAAGTTTAAATAAGGCTAGTCCGTTATCAACTTGAGAAAGTGGCACCGAGCCGGTGCT",0.8454
13,"cr829 (nucleic acid, listed as DNA, chemistry not fully specified) guide: GTTTAAGAGCTAAGCTGGAAACAGCATACCAAGTTTAAATAAGGCTAGTCCGTTATCAACTTGAAAAAGTGGCACCGAGTCGGTGCT",0.8571
14,"cr153 (nucleic acid, listed as DNA, chemistry not fully specified) guide: GTTTAAGAGCTAAGCTGGAAACAGCATAGCAAGTTTAAATAAGGCTAGTCCGTTATCAAAATGAAAATTTGGCACCGAGTCGGTGCT",0.8735
15,"cr105 (nucleic acid, listed as DNA, chemistry not fully specified) guide: GTTTAAGAGCTAAGCTGGAAACAGCATAGCAAGTTTAAATAAGGCCAGTCCGTTATCAACTTGACAAAGTGGCACCGAGTCGGTGCT",0.8672
